# B1: Full length GATA4 produced by E. coli (natural protein)
# chain: not shown
# notes: GATA4, full length; also called purified GATA4; recombinant GATA4; source: E. coli BL21 DE3, purified (Glutathione-Sepharose 4B, GST removed with HRV3C protease)
# Biological target: the molecule itself
# Assay: SEC; purified GATA4 on Superdex200 Increase 10/300 GL in 20 mM HEPES-NaOH pH 7.4, 100 mM NaCl; fractions blotted with anti-GATA4
protein,measurement,value
B1,stoichiometry N,~8
